These results are taken from publication PMC9976613 (Journal of structural biology, 2018).

The series concerns the molecule itself. Nature of the series: crystal structure.

B1: His6-DcrBΔ37 (domain or fragment, Salmonella enterica, UniProt Q7CPJ3 38-185, looked up)
chain: ASGQPISLMDGKLSFSLPADMTDQSGKLGTQANNMHVYSDPTGQKAVIVIVGDNTDEALPVLANRLLEQQRSRDPQLQVVTNKSIELKGHTLQQLDSIISAKGQTAYSSIVLGKVDNQLLTIQVTLPADNQQKAQTTAENIINTLVIK
On to B1, for which the binding result is “binds”.
